Results from paper PMC2658612 (Cell host & microbe, 2008).

Target: T1, SifA (1–330), as in the calorimetry and the crystal (S. typhimurium, UniProt Q56061 1-330)
T1 sequence: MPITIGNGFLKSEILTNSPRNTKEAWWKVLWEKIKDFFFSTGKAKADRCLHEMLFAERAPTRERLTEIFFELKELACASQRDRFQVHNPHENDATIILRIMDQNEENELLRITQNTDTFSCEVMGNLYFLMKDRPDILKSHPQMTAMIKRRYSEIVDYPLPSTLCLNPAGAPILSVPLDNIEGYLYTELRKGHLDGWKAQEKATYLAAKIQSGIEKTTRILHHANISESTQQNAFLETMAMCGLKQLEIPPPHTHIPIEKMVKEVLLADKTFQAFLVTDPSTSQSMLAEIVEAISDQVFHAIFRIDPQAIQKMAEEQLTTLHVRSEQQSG
Experiment: ITC

B1: PH domain (PHD) of SKIP (774–883), as in the calorimetry and the crystal (domain or fragment, UniProt Q8IWE5 774-883, looked up)
chain: KEGMLHYKAGTSYLGKEHWKTCFVVLSNGILYQYPDRTDVIPLLSVNMGGEQCGGCRRANTTDRPHAFQVILSDRPCLELSAESEAEMAEWMQHLCQAVSKGVIPQGVAP
In the case of B1, the Kd is reported as 2.58 µM.
